Reference: PMC8405992 (2021)

Columns and labels:
Test in all cases: NMR titration
Dsk2-UBL 2-77 = target: T1, Dsk2-UBL 2-77 (Saccharomyces cerevisiae, UniProt P48510)
T1 chain: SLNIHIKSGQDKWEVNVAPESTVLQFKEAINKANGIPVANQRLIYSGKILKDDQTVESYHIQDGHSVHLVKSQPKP

Ubp6-UBL 2-81 = target: T2, Ubp6-UBL 2-81 (Saccharomyces cerevisiae, UniProt P43593)
T2 chain: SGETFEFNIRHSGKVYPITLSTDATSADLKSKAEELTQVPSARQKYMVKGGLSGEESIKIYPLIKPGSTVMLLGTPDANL

K48-linked diubiquitin = K48-linked diubiquitin (Homo sapiens, UniProt P0CG48)
K11-linked diubiquitin = K11-linked diubiquitin (Homo sapiens, UniProt P0CG48)

B1: Rpn1 214-355 (protein)
chain: HNGEEDAVDLLLEIESIDKLPQFVDENTFQRVCQYMVACVPLLPPPEDVAFLKTAYSIYLSQNELTDAIALAVRLGEEDMIRSVFDATSDPVMHKQLAYILAAQKTSFEYEGVQDIIGNGKLSEHFLYLAKELNLTGPKVPE
B1 was tested, and the Kd (Dsk2-UBL 2-77) was 48 µM and the Kd (Ubp6-UBL 2-81) was 104 µM.

B2: Rpn1 214-355 (protein)
chain: HNGEEDAVDLLLEIESIDKLPQFVDENTFQRVCQYMVACVPLLPPPEDVAFLKTAYSIYLSQNELTDAIALAVRLGEEDMIRSVFDATSDPVMHKQLAYILAAQKTSFEYEGVQDIIGNGKLSEHFLYLAKELNLTGPKVPE
modifications: K48-linked Ub2, distal Ub 15N-enriched
Work on B2 yielded a Kd (K48-linked diubiquitin) of 288 µM.

B3: Rpn1 214-324 (protein)
chain: HNGEEDAVDLLLEIESIDKLPQFVDENTFQRVCQYMVACVPLLPPPEDVAFLKTAYSIYLSQNELTDAIALAVRLGEEDMIRSVFDATSDPVMHKQLAYILAAQKTSFEYE
modifications: K11-linked Ub2, distal Ub 15N-enriched
In the case of B3, the Kd (K11-linked diubiquitin) is reported as 42 µM.

B4: Rpn1 214-355 (protein)
chain: HNGEEDAVDLLLEIESIDKLPQFVDENTFQRVCQYMVACVPLLPPPEDVAFLKTAYSIYLSQNELTDAIALAVRLGEEDMIRSVFDATSDPVMHKQLAYILAAQKTSFEYEGVQDIIGNGKLSEHFLYLAKELNLTGPKVPE
modifications: K11-linked Ub2, distal Ub 15N-enriched
Work on B4 yielded a Kd (K11-linked diubiquitin) of 44 µM.
